Results: patent US20190282673A1, “STAPHTAME ACTIVITY ON BIOFILMS” (priority 2016, published 2019)

Assays:
[1] = tested on: multi-species biofilm (P. aeruginosa PAO1, S. aureus ATCC 700699, E. faecalis ATCC 29212); assay: Lubbock chronic wound pathogenic biofilm (LCWPB) mixed culture model; type: cell-based; conditions: for CFU/mL of P. aeruginosa / CFU/mL of E. faecalis / CFU/mL of S. aureus: 24 h
Protocol: LCWPB media (Bolton broth, Oxoid Ltd, supplemented with 50% Bovine Plasma and 5% hemolyzed horse blood) was used for multi-species biofilm formation according to the procedure described. Sun, et al. (2008) “In vitro multispecies Lubbock chronic wound biofilm model” Wound Repair Regen. 16:805-13. Briefly, P. aeruginosa PAO1, E. faecalis ATCC 29212 and S. aureus ATCC 700699 grown on TSB agar plates were inoculated into TSB broth and grown at 37° C. in a shaker for 16 h. The cultures were individually diluted to 1×10^6 CFU/mL, mixed in equal volumes, and 10 μL was added to 3 mL of LCWPB media containing a sterile pipette tip. For biofilm formation either two (P. aeruginosa PAO1, and S. aureus ATCC 700699) or all three bacterial species (P. aeruginosa PAO1, E. faecalis ATCC 29212 and S. aureus ATCC 700699) were inoculated into LCWPB media. In this model the pipette tip acts as a surface for biofilm formation. To test the ability of P128 to prevent biofilm formation, P128 at 10, 50 and 250 μg/mL was added to the tubes and the tubes were incubated at 37° C. in a shaker for 24 h with shaking at 150 rpm. Upon completion of incubation, the tips were removed from the tubes and placed on petri plates for observation. In the absence of P128, a confluent and thick mass of biofilm could be seen. The mass of the biofilm was greater in culture tubes with 3 species than in the ones with 2 species. For enumeration of bacteria in biofilms, the biofilm formed on the tips was washed twice in PBS, transferred into clean test tubes, and again washed twice with PBS. The washed biofilm mass was then transferred to a 50 mL conical polypropylene tube and the biofilm was macerated with sterile scissors. In situations when biofilm formation was not visible, the tips alone were processed as described above. The contents were vortexed thoroughly, diluted and plated on TSA plates. The plates were incubated for 24 h at 37° C. followed by incubation at ambient temperature for 24 h to enhance pigment production.

[2] = tested on: S. aureus small colony variants (hemB and menD mutants); assay: Lawn inhibition assay on small colony variants; type: cell-based, Staphylococcus aureus
Protocol: Two S. aureus small colony variants viz., hemB mutant and menD mutants were characterized for SCV phenotype and auxotrophy for hemin and menadione. Both the isolates were revived on LB agar with and without Erythromycin (5 μg/mL) and Blood agar medium and incubated at 37° C. for 48 hr.
P128 was tested on both the mutants by lawn inhibition assay and the SCV's were susceptible to P128.

[3] = tested on: S. aureus stationary phase cells; assay: P128 activity on stationary phase cells (CFU); type: cell-based, Staphylococcus aureus; conditions: for CFU/mL, P128 treated: 10 μg/mL P128, 2 h
From the text: (§1) Most in vitro studies examining the activity of antibiotics have been performed on rapidly dividing planktonic bacterial cultures supplemented with rich growth media. However, in infections, bacteria seldom encounter optimal conditions that allow logarithmic growth. It is likely that stationary-phase or non dividing bacteria are common in many persistent Staphylococcus infections such as endocarditis and osteomyelitis and in biofilm-associated infections (e.g., on catheters, grafts, and foreign bodies). Therefore, activity of P128 was determined on stationary phase cells of three S. aureus strains, three S. epidermidis, and two each of S. lugdunensis and S. haemolyticus strains. Briefly, the test cultures were grown overnight in LB (˜10^9 cells), centrifuged, pellet was washed and resuspended in saline. Optical density (OD600) was adjusted to 0.2 (˜10^8 CFU/mL). 100 μL of these cells were treated with 10 μg/mL P128 (in saline) and incubated at 37° C. for 2 h, 200 rpm, cell controls without proteins were maintained. Following incubation, the volume was made up to 1 mL with saline, serially log diluted in saline and plated on LB agar. Incubated at 37° C. for 18 h to enumerate residual CFU to determine cell killing.

[4] = tested on: S. epidermidis stationary phase cells; assay: P128 activity on stationary phase cells (CFU); type: cell-based, Staphylococcus epidermidis; conditions: 10 μg/mL P128, 2 h
From the text: as §1

S. aureus = assay: P128 MIC in CAMHB and serum; type: cell-based, Staphylococcus aureus
S. epidermidis = assay: P128 MIC in CAMHB and serum; type: cell-based, Staphylococcus epidermidis
S. lugdunensis = assay: P128 MIC in CAMHB and serum; type: cell-based
S. haemolyticus = assay: P128 MIC in CAMHB and serum; type: cell-based
[5] = two species (P. aeruginosa PAO1, S. aureus ATCC 700699), P128 10 μg/mL

B1: P128: anti-staphylococcal chimeric protein: phage tail associated muralytic enzyme (TAME) cell wall-degrading region plus staphylococcus-specific binding region; SEQ ID NO: 1 (protein)
chain: MSLDSLKKYNGKLPKHDPSFVQPGNRHYKYQCTWYAYNRRGQLGIPVPLWGDAADWIGGAKGAGYGVGRTPKQGACVIWQRGVQGGSPQYGHVAFVEKVLDGGKKIFISEHNYATPNGYGTRTIDMSSAIGKNAQFIYDKKLETPNTGWKTNKYGTLYKSESASFTPNTDIITRTTGPFRSMPQSGVLKAGQTIHYDEVMKQDGHVWVGYTGNSGQRIYLPVRTWNKSTNTLGVLWGTIK
modifications: P128 chimera
- Prevention of biofilm formation ([1]; P128 1×MIC (10 μg/mL)): prevented the formation of biofilms
- CFU/mL of P. aeruginosa ([1]; three species (P. aeruginosa PAO1, S. aureus ATCC 700699, E. faecalis ATCC29212), P128 10 μg/mL): 2.2 × 10^5 CFU/mL
- CFU/mL of E. faecalis ([1]; three species, P128 10 μg/mL): 9 × 10^5 CFU/mL
- CFU/mL of S. aureus ([1]; three species, P128 10 μg/mL): 2 × 10^4 CFU/mL
- CFU/mL of E. faecalis ([1]; three species, P128 50 μg/mL): 1.8 × 10^4 CFU/mL
- CFU/mL of P. aeruginosa ([1]; three species, P128 50 μg/mL): 7 × 10^4 CFU/mL
- CFU/mL of S. aureus ([1]; three species, P128 50 μg/mL): 2 × 10^3 CFU/mL
- CFU/mL of E. faecalis ([1]; three species, P128 250 μg/mL): 1.6 × 10^4 CFU/mL
- CFU/mL of P. aeruginosa ([1]; three species, P128 250 μg/mL): 1.7 × 10^5 CFU/mL
- CFU/mL of S. aureus ([1]; three species, P128 250 μg/mL): <10 CFU/mL
- CFU/mL of P. aeruginosa [1, 5]: 2 × 10^6 CFU/mL
- CFU/mL of S. aureus [1, 5]: 2.2 × 10^5 CFU/mL
- CFU/mL of P. aeruginosa ([1]; two species, P128 50 μg/mL): 1.5 × 10^5 CFU/mL
- CFU/mL of S. aureus ([1]; two species, P128 50 μg/mL): 1.8 × 10^5 CFU/mL
- CFU/mL of P. aeruginosa ([1]; two species, P128 250 μg/mL): 8 × 10^5 CFU/mL
- CFU/mL of S. aureus ([1]; two species, P128 250 μg/mL): 2 × 10^3 CFU/mL
- Lawn inhibition [2]: susceptible
- CFU/mL, P128 treated ([3]; S. aureus B9377 stationary phase): 3 × 10^2 CFU/mL
- CFU/mL, P128 treated ([3]; S. aureus BK18 stationary phase): 1 × 10^1 CFU/mL
- CFU/mL, P128 treated ([3]; S. aureus BK31 stationary phase): 3.5 × 10^1 CFU/mL
- Drop in CFU, stationary cells ([3]; S. aureus, S. epidermidis, S. lugdunensis and S. haemolyticus): Three to five log drop in CFU
- CFU/mL, P128 treated ([4]; S. epidermidis B9467 stationary phase): 3.7 × 10^2 CFU/mL
- CFU/mL, P128 treated ([4]; S. epidermidis B9470 stationary phase): 1.5 × 10^2 CFU/mL
- CFU/mL, P128 treated ([4]; S. epidermidis B9472 stationary phase): 7 × 10^1 CFU/mL
- Fold reduction in serum MIC (S. aureus; S. aureus MW2): 64 fold
- MIC of P128 in CAMHB (S. aureus; S. aureus MW2): 8 μg/ml and (0.29) μM
- MIC of P128 in Serum (S. aureus; S. aureus MW2): 0.12 μg/ml and (0.004) μM
- Fold reduction in serum MIC (S. aureus; S. aureus USA 300): 64 fold
- MIC of P128 in CAMHB (S. aureus; S. aureus USA 300): 8 μg/ml and (0.29) μM
- MIC of P128 in Serum (S. aureus; S. aureus USA 300): 0.12 μg/ml and (0.004) μM
- Fold reduction in serum MIC (S. epidermidis; S. epidermidis B9470): 32 fold
- MIC of P128 in CAMHB (S. epidermidis; S. epidermidis B9470): 4 μg/ml and (0.14) μM
- MIC of P128 in Serum (S. epidermidis; S. epidermidis B9470): 0.12 μg/ml and (0.004) μM
- Fold reduction in serum MIC (S. epidermidis; S. epidermidis B9473): 4 fold
- MIC of P128 in CAMHB (S. epidermidis; S. epidermidis B9473): 16 μg/ml and (0.58) μM
- MIC of P128 in Serum (S. epidermidis; S. epidermidis B9473): 4 μg/ml and (0.14) μM
- 24 h P128 MIC for serum time-kill (S. epidermidis; S. epidermidis, fetal calf serum): 0.25 µg/mL
- Fold reduction in serum MIC (S. lugdunensis; S. lugdunensis B9476): 8 fold
- MIC of P128 in CAMHB (S. lugdunensis; S. lugdunensis B9476): 4 μg/ml and (0.14) μM
- MIC of P128 in Serum (S. lugdunensis; S. lugdunensis B9476): 0.5 μg/ml and (0.017) μM
- Fold reduction in serum MIC (S. lugdunensis; S. lugdunensis B9510): 32 fold
- MIC of P128 in CAMHB (S. lugdunensis; S. lugdunensis B9510): 16 μg/ml and (0.58) μM
- MIC of P128 in Serum (S. lugdunensis; S. lugdunensis B9510): 0.5 μg/ml and (0.017) μM
- 24 h P128 MIC for serum time-kill (S. lugdunensis; S. lugdunensis, fetal calf serum): 0.50 µg/mL
- Fold reduction in serum MIC (S. haemolyticus; S. haemolyticus B9478): 16 fold
- MIC of P128 in CAMHB (S. haemolyticus; S. haemolyticus B9478): 128 μg/ml and (4.64) μM
- MIC of P128 in Serum (S. haemolyticus; S. haemolyticus B9478): 8 μg/ml and (0.29) μM
- Fold reduction in serum MIC (S. haemolyticus; S. haemolyticus B9511): 32 fold
- MIC of P128 in CAMHB (S. haemolyticus; S. haemolyticus B9511): 8 μg/ml and (0.29) μM
- MIC of P128 in Serum (S. haemolyticus; S. haemolyticus B9511): 0.25 μg/ml and (0.008) μM
- 24 h P128 MIC for serum time-kill (S. haemolyticus; S. haemolyticus, fetal calf serum): 0.25 µg/mL
